Measurements published in patent US20220307010A1 (TWIST BIOSCIENCE, published 2022).

Key:
[1] = target: T1, TIGIT (T cell immunoreceptor with Ig and ITIM domains) (human, UniProt Q495A1 22-141, limits assumed); test: SPR kinetics
T1 construct: also called hTIGIT; human TIGIT
T1 sequence (looked up): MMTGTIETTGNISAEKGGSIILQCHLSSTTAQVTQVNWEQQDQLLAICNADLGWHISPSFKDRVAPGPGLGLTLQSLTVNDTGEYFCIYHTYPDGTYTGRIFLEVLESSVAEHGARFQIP

[2] = target: T2, TIGIT (T cell immunoreceptor with Ig and ITIM domains) (human, UniProt Q495A1 22-141, limits assumed); test: SPR, VHH-V5-His
T2 construct: also called hTIGIT; human TIGIT
T2 sequence (looked up): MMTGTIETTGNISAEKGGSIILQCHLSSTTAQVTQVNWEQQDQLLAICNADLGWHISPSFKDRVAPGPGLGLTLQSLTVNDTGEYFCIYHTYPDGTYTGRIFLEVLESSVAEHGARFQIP

[3] = target: T1, TIGIT (T cell immunoreceptor with Ig …); test: ELISA

Binder	Kd [1] [nM]	koff [1] [s⁻¹]	kon [1] [M⁻¹ s⁻¹]	koff [2] [s⁻¹]	kon [2] [M⁻¹ s⁻¹]	Kd [2] [nM]	ELISA [3]
TIGIT-211-77 (antibody, V domains shown) VH: EVQLLESGGGLVQPGGSLRLSCAASGFTFGNYAMAWVRQAPGKGLEWVSSIWPSGGQTWYADSVKGRFTISRDNSKNTLYLQMNSLRAEDTAVYYCAKGGTSFDYWGQGTLVTVSS VL: DIQMTQSPSSLSASVGDRVTITCRASQSVRSYLNWYQQKPGKAPKLLIYAASSLYSGVPSRFSGSGSGTDFTLTISSLQPEDFATYYCQQYASVPVTFGQGTKVEIK	683	0.0417	61000				
TIGIT-211-93 (antibody, V domains shown) VH: EVQLLESGGGLVQPGGSLRLSCAASGFTFSRYFMGWVRQAPGKGLEWVSEISPSGKKKYYADSVKGRFTISRDNSKNTLYLQMNSLRAEDTAVYYCAKSSFDKYNFDYWGQGTLVTVSS VL: DIQMTQSPSSLSASVGDRVTITCSASQDINKYLNWYQQKPGKAPKLLIYHTSRLQSGVPSRFSGSGSGTDFTLTISSLQPEDFATYYCQQFAYFPATFGQGTKVEIK	1240	0.0281	22700				
TIGIT-211-95 (antibody, V domains shown) VH: EVQLLESGGGLVQPGGSLRLSCAASGFTFPKYGMAWVRQAPGKGLEWVSTISSGGGYTYYPDSVKGRFTISRDNSKNTLYLQMNSLRAEDTAVYYCARDTYLHFDYWGQGTLVTVSS VL: DIQMTQSPSSLSASVGDRVTITCRASQGVRTSLAWYQQKPGKAPKLLIYAKNNRPSGVPSRFSGSGSGTDFTLTISSLQPEDFATYYCQQSYSAPYTFGQGTKVEIK	355	0.0756	213000				
TIGIT-211-98 (antibody, V domains shown) VH: EVQLLESGGGLVQPGGSLRLSCAASGFTFETYAMSWVRQAPGKGLEWVSVISGSGGRPNYADSVKGRFTISRDNSKNTLYLQMNSLRAEDTAVYYCAREGLWAFDYWGQGTLVTVSS VL: DIQMTQSPSSLSASVGDRVTITCRASHFIGSLLSWYQQKPGKAPKLLIYETSKLASGVPSRFSGSGSGTDFTLTISSLQPEDFATYYCQQSYSYPRTFGQGTKVEIK	574000	0.098	171				
TIGIT-211-116 (antibody, V domains shown) VH: EVQLLESGGGLVQPGGSLRLSCAASGFTFSRYFMGWVRQAPGKGLEWVSAISGSGGNTYYADSVKGRFTISRDNSKNTLYLQMNSLRAEDTAVYYCARVWRNHLDYWGQGTLVTVSS VL: DIQMTQSPSSLSASVGDRVTITCRASQTIERRLNWYQQKPGKAPKLLIYHDNKRPSGVPSRFSGSGSGTDFTLTISSLQPEDFATYYCQQGYTLPWTFGQGTKVEIK	269000	0.105	389				
TIGIT-29-01 VHH-V5-His (VHH, not shown: V5-His tag) VHH: EVQLVESGGGLVQAGGSLRLSCAASGRTFSNYAMGWFRQAPGKEREFVAAITWSGTRTDYADSVKGRFTISADNAKNTVYLQMNSLKPEDTAVYYCAAAAWTIYEYDYWGQGTQVTVSS				0.01	30000		
TIGIT-29-07 VHH-V5-His (VHH, not shown: V5-His tag) VHH: EVQLVESGGGLVQAGGSLRLSCAASGSIFSNYAMGWFRQAPGKEREFVATISRGGTRTNYADSVKGRFTISADNAKNTVYLQMNSLKPEDTAVYYCAAAAWTIYAYNYWGQGTQVTVSS				0.004	8000		
TIGIT-29-12 VHH-V5-His (VHH, not shown: V5-His tag) VHH: EVQLVESGGGLVQAGGSLRLSCAASGSTFSSYAMGWFRQAPGKEREFVAAITWSGTRTNYADSVKGRFTISADNAKNTVYLQMNSLKPEDTAVYYCAAAAWTIYTYDSWGQGTQVTVSS				0.1	10000		
TIGIT-29-30 VHH-V5-His (VHH, not shown: V5-His tag) VHH: EVQLVESGGGLVQAGGSLRLSCAASGFTFSSYAMGWFRQAPGKEREFVAAITWSGTRTDYADSVKGRFTISADNAKNTVYLQMNSLKPEDTAVYYCAAAAWRYSEYDYWGQGTQVTVSS				0.08	300000		
TIGIT-29-33 VHH-V5-His (VHH, not shown: V5-His tag) VHH: EVQLVESGGGLVQAGGSLRLSCAASGFIFSTYAMGWFRQAPGKERELVSAITRSGITTYYADSVKGRFTISADNAKNTVYLQMNSLKPEDTAVYYCAAAAWTIYEYDYWGQGTQVTVSS				0.04	20000	1520	
TIGIT-29-06 VHH-V5-His (VHH, not shown: V5-His tag) VHH: EVQLVESGGGLVQAGGSLRLSCAASGGTFRSYVMGWFRQAPGKEREWVATINSSGSRTYYADSVKGRFTISADNAKNTVYLQMNSLKPEDTAVYYCAARPNYRDYEYWGQGTQVTVSS				0.02		433000	
TIGIT-29-10 VHH-V5-His (VHH, not shown: V5-His tag) VHH: EVQLVESGGGLVQAGGSLRLSCAASGRTFSNYGMGWFRQAPGKEREFVSGISGSGGRTSYADSVKGRFTISADNAKNTVYLQMNSLKPEDTAVYYCAANLWYPVDRLNTGFNYWGQGTQVTVSS				0.003	10000		
TIGIT-29-18 VHH-V5-His (VHH, not shown: V5-His tag) VHH: EVQLVESGGGLVQAGGSLRLSCAASGSTFSNYAMGWFRQAPGKEREFVSAINSSGSRTYYADSVKGRFTISADNAKNTVYLQMNSLKPEDTAVYYCAARLWGTWTAGDYDYWGQGTQVTVSS				0.007	20000		
TIGIT-29-22 VHH-V5-His (VHH, not shown: V5-His tag) VHH: EVQLVESGGGLVQAGGSLRLSCAASGSILSSYTMGWFRQAPGKEREFVSTISRSSTRTYYADSVKGRFTISADNAKNTVYLQMNSLKPEDTAVYYCAARLWGTWTAGDYDYWGQGTQVTVSS				0.003	6000		
TIGIT-29-34 VHH-V5-His (VHH, not shown: V5-His tag) VHH: EVQLVESGGGLVQAGGSLRLSCAASGFTFRNYAMGWFRQAPGKEREFVSSISSSSSRTSYADSVKGRFTISADNAKNTVYLQMNSLKPEDTAVYYCAARLWGTWTAGDYDYWGQGTQVTVSS				0.03	30000		
TIGIT-30-43 VHH-V5-His (VHH, not shown: V5-His tag) VHH: EVQLVESGGGLVQAGGSLRLSCAASGFTFSTSWMGWFRQAPGKERELVAARNSGGNTNYADSVKGRFTISADNAKNTVYLQMNSLKPEDTAVYYCAADVWYGSTWRNWGQGTQVTVSS				0.008	70000		
TIGIT-30-01 VHH-V5-His (VHH, not shown: V5-His tag) VHH: EVQLVESGGGLVQAGGSLRLSCAASGFAFSSYWMGWFRQAPGKERELVAARNSGGNTNYADSVKGRFTISADNAKNTVYLQMNSLKPEDTAVYYCAADVWYGSTWRNWGQGTQVTVSS				0.08	10000		
TIGIT-30-40 VHH-V5-His (VHH, not shown: V5-His tag) VHH: EVQLVESGGGLVQAGGSLRLSCAASGFTFSGNWMGWFRQAPGKEREWVVGISSGGSTHYADSVKGRFTISADNAKNTVYLQMNSLKPEDTAVYYCAADVWYGSTWRNWGQGTQVTVSS				0.006	30000		
TIGIT-30-15 VHH-V5-His (VHH, not shown: V5-His tag) VHH: EVQLVESGGGLVQAGGSLRLSCAASGFTFSGNWMGWFRQAPGKEREWVSGISSGGGRTYYADSVKGRFTISADNAKNTVYLQMNSLKPEDTAVYYCAADVWYGSTWRNWGQGTQVTVSS				0.004	20000		
TIGIT-30-20 VHH-V5-His (VHH, not shown: V5-His tag) VHH: EVQLVESGGGLVQAGGSLRLSCAASGPTFSIYDMGWFRQAPGKEREFVAVINWSRGSTFYADSVKGRFTISADNAKNTVYLQMNSLKPEDTAVYYCAAGVWSSLRHTAANWGQGTQVTVSS				0.002	10000		
TIGIT-30-30 VHH-V5-His (VHH, not shown: V5-His tag) VHH: EVQLVESGGGLVQAGGSLRLSCAASGGTFSGRGMGWFRQAPGKEREWVSSVYIFGGSTYYADSVKGRFTISADNAKNTVYLQMNSLKPEDTAVYYCANSNKPKFDWGQGTQVTVSS				0.006	10000	387	
TIGIT-30-49 VHH-V5-His (VHH, not shown: V5-His tag) VHH: EVQLVESGGGLVQAGGSLRLSCAASGNIFSRYIMGWFRQAPGKEREWVAGISNGGTTKYADSVKGRFTISADNAKNTVYLQMNSLKPEDTAVYYCAQGWKIVPTNWGQGTQVTVSS				0.08	90000		
TIGIT-30-52 VHH-V5-His (VHH, not shown: V5-His tag) VHH: EVQLVESGGGLVQAGGSLRLSCAASGRTFSNYFMGWFRQAPGKERESVATVTWRDNITYYADSVKGRFTISADNAKNTVYLQMNSLKPEDTAVYYCASAGRWGQGTQVTVSS				0.1	30000	4240	
TIGIT-211-13 (antibody, V domains shown) VH: EVQLLESGGGLVQPGGSLRLSCAASGFTFNKYPMMWVRQAPGKGLEWVSYISSSGSSTYYADSVKGRFTISRDNSKNTLYLQMNSLRAEDTAVYYCARVIAAAGAFDYWGQGTLVTVSS VL: DIQMTQSPSSLSASVGDRVTITCRASQSIREYLHWYQQKPGKAPKLLIYFGSELRKGVPSRFSGSGSGTDFTLTISSLQPEDFATYYCGQGVLWPATFGQGTKVEIK	221	0.326	1.48e+06				15
TIGIT-211-15 (antibody, V domains shown) VH: EVQLLESGGGLVQPGGSLRLSCAASGFTFSSAAMSWVRQAPGKGLEWVSGISPSGGITTYADSVKGRFTISRDNSKNTLYLQMNSLRAEDTAVYYCASLSRGYWGQGTLVTVSS VL: DIQMTQSPSSLSASVGDRVTITCQSSQSVYSNNELSWYQQKPGKAPKLLIYGTSYRYSGVPSRFSGSGSGTDFTLTISSLQPEDFATYYCSSWAGSRSGTVFGQGTKVEIK	301	0.00712	23600				11.3
